The source of these data is article PMC6860931, “Role of the malic enzyme in metabolism of the halotolerant methanotroph Methylotuvimicrobium alcaliphilum 20Z” (PLoS ONE, 2019).

Substrate in data set [1]: NC(=O)c1ccc[n+]([C@@H]2O[C@H](COP(=O)(O)OP(=O)(O)OC[C@H]3O[C@@H](n4cnc5c(N)ncnc54)[C@H](O)[C@@H]3O)[C@@H](O)[C@H]2O)c1
Kind of data set: purified protein. The class given is biochemical, Methylotuvimicrobium alcaliphilum. The settings on record: malate as co-substrate, assay mixture 10 mM malate, 2.5 mM MgCl2, 50 mM Tris-HCl, pH 9.0, 30°C, varied: cofactor.

Substrate in data set [2]: O=C(O)C[C@H](O)C(=O)O
Kind of data set: purified protein. The conditions noted are these: NAD+ as co-substrate, assay mixture 0.3 mM NAD+, 2.5 mM MgCl2, 50 mM Tris-HCl, pH 9.0, 30°C.

B1: Mae (malic enzyme from Mtm. alcaliphilum 20Z) (Methylotuvimicrobium alcaliphilum 20Z) (protein)
chain: MTAMSKTPLYIPYAGPALLEMPLLNKGCAFSKEERQTFNLTGLLPPRYETIEEQVQRAYLQYSSFRNAINKHIYLRSIQDNNETLFYRLLQDHLPEMLPIIYTPTVGDACEQFSDIYRSSRGLFISYVDRQQIDDILRNTTKRNVKIIVVTDGERVLGLGDQGIGGMGISIGKLSLYTACGGISPAYTLPVVLDVGTNNEKLLQDPMYMGERHRRIPQAEYDAFIDFFLQAVKRRWPDVIVQFEDFAQPNAMPILQRYRDQLCCFNDDIQGTAAVTVGTLLAACRVKNRKLSEQRVVFVGAGSAGCGIAEQVIAQMRTEGLSDREARHRVYMVDRFGLLTESMTGLRDFQQKLVQVSNRLEDWSIESDYPSLLEVIQYAKPTVLIGVSGQHGIFTETVIRTMTQGCDWPIIFPLSNPPRQVEATPEQIIEWTEGRVLLAAGSPFPPVEYGGKRYDVTQCNNSYIFPGIGLGVIAVQARRISDEMLIAASETLAAASPLANTGQGELLPPLTELPELSKRIAFAVGKVALKQNLALEISDEQLLKSIEENFWQPVYRHYKRVCF
notes: full-length, 1689 bp gene, pET22b(+) NdeI/XhoI, His6-tagged, E. coli BL21 (DE3), Ni-NTA
As to B1, the Km (usually the concentration of substrate that gives half-maximal velocity) in “purified protein [1]” was determined as 57 ± 5 µM; in the data set “purified protein [2]”, 5500 ± 800 µM.
